Laboratory results: US20240124586A1 (WUXI BIOLOGICS IRELAND, published 2024)

Assays:
[1] = molecular target: FcγRIIIa (F176) (UniProt P08637 17-208); assay: SPR (Biacore), receptor captured on anti-his chip, steady state model
Procedure: (§1) Antibody binding affinity to FcγRs was detected using Biacore T200 (or Biacore 8K). Each receptor was captured on an anti-his antibody immobilized CM5 sensor chip (GE). Antibodies at different concentrations were injected over the sensor chip at a flow rate of 30 uL/min for an association phase of 60 s, followed by 60 s dissociation. The chip was then regenerated by 10 mM glycine (pH 1.5) after each binding cycle.
(§2) The sensorgrams of blank surface and buffer channel were subtracted from the test sensorgrams. The experimental data was fitted by 1:1 model using Langmiur analysis (for FcγRI) or steady state model (for other receptors). A molecular weight of 150 KDa was used to calculate the molar concentration of antibodies.

[2] = molecular target: T1, FcγRIIa (H167) (UniProt P12318 36-218, limits assumed); assay: as above
T1 sequence (looked up): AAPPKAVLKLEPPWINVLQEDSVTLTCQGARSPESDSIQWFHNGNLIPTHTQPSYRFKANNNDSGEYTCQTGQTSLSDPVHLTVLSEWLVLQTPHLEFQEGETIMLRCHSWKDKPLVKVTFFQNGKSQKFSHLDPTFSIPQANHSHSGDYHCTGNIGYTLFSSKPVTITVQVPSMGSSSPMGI
Procedure: as §1, §2

[3] = molecular target: T2, FcγRIIa (R167) (UniProt P12318 36-218, limits assumed); assay: as above
T2 sequence (looked up): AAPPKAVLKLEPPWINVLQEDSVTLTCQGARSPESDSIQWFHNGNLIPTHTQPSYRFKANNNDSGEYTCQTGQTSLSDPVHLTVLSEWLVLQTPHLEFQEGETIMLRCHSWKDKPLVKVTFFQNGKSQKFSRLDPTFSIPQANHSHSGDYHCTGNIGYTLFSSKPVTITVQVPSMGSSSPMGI
Procedure: as §1, §2

[4] = molecular target: T3, FcγRIIb (UniProt P31994 46-217, limits assumed); assay: as above
T3 sequence (looked up): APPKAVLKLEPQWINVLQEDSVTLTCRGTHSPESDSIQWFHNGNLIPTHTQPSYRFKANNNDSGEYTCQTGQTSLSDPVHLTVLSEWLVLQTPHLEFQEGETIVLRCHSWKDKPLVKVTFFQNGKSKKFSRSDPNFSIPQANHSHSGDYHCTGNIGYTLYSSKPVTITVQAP
Procedure: as §1, §2

[5] = molecular target: FcγRIIIa (V176) (UniProt P08637 17-208); assay: as above
Procedure: as §1, §2

[6] = molecular target: T4, FcγRI (UniProt P12314 16-288, limits assumed); assay: SPR (Biacore), receptor captured on anti-his chip, 1:1 model
T4 construct: His-tagged by the capture method
Procedure: as §1, §2

[7] = molecular target: T5, human CD19 on CD19+ B cell lines (Ramos, Raji) (human, UniProt P15391 20-556); assay: affinity by flow cytometry on Ramos cells (bound/free versus bound)
T5 construct: whole, on cells; also called CD19+ Ramos cells; CD19+ Raji cells
T5 sequence (looked up): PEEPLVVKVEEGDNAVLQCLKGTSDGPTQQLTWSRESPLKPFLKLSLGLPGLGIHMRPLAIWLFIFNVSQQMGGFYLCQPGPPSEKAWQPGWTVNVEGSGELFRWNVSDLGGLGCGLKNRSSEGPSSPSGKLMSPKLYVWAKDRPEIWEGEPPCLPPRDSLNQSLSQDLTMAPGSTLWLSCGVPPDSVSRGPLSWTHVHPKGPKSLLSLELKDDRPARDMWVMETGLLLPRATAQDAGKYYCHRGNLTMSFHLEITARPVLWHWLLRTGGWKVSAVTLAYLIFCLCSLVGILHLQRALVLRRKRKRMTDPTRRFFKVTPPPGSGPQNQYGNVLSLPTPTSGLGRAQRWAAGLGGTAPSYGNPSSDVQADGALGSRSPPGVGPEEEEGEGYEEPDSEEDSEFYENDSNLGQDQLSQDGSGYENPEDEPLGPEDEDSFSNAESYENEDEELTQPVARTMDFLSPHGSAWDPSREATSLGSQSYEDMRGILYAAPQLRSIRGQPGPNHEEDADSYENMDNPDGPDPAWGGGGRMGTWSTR
Procedure: Binding affinity to CD3 and CD19 was determined by flow cytometry using Jurkat and Ramos cells, respectively. The cells were transferred in to 96-well U-bottom plates (BD) at a density of 5×10⁴ cells/well. Antibodies to be tested were 1:2-fold serially diluted in 1% 1×PBS/1% BSA and incubated with cells at 4° C. for 1 hr. Then, the plates were centrifuged at 1500 rpm for 4 mins and the supernatant discarded. […] The cells were washed once and re-suspended in 100 μL 1×PBS/1% BSA. Fluorescence intensity was measured by flow cytometry (BD Canto II) and analyzed by FlowJo. Fluorescence intensity was converted to bound molecules/cell based on the quantitative beads (Quantum™ MESF Kits, Bangs Laboratories). KD was calculated by Graphpad Prism5.
The bound IgG/free IgG versus bound IgG was plotted in FIGS. 46A and 46B.

[8] = molecular target: T6, ECD of human CTLA-4 (SPR analyte) (human, UniProt P16410 36-161); assay: SPR (Biacore), antibody captured as ligand on an anti-human IgG Fc chip, CTLA4 ECD as analyte
T6 construct: extracellular domain
Procedure: SPR technology was used to measure the on-rate constant (ka) and off-rate constant (kd) of the antibodies to ECD of CTLA-4 or PD-1. The affinity constant (KD) was consequently determined.
Biacore T200, Series S Sensor Chip CM5, Amine Coupling Kit, and 10×HBS-EP were purchased from GE Healthcare. Goat anti-human IgG Fc antibody was purchased from Jackson ImmunoResearch Lab (catalog number 109-005-098). In immobilization step, the activation buffer was prepared by mixing 400 mM EDC and 100 mM NHS immediately prior to injection. The CM5 sensor chip was activated for 420 s with the activation buffer. 30 μg/mL of goat anti-human IgG Fcγ antibody in 10 mM NaAc (pH 4.5) was then injected to Fc1-Fc4 channels for 200 s at a flow rate of 5 μL/min. The chip was deactivated by 1 M ethanolamine-HCl (GE). Then the antibodies were captured on the chip. Briefly, 4 μg/mL antibodies in running buffer (HBS-EP+) was injected individually to Fc3 channel for 30 s at a flow rate of […]. […] Regeneration buffer (10 mM Glycine pH 1.5) was injected at 10 μL min for 30 s following every dissociation phase.

T6 sequence (P16410 36-161): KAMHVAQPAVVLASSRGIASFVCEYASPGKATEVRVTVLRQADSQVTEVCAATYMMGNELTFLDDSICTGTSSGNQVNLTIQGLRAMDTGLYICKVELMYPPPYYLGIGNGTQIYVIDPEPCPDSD
FcγRIIIa (V176), sequence (P08637 17-208 F176V limits assumed): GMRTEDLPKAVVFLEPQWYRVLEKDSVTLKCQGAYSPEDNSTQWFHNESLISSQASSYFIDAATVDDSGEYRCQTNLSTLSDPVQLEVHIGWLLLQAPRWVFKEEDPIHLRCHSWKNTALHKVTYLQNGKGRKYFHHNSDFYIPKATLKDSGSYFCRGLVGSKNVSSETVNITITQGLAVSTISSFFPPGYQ
FcγRIIIa (F176), sequence (P08637 17-208 limits assumed): as the sequence (P08637 17-208 F176V limits assumed) above, with V160F counted along it
T4 sequence (P12314 16-288 limits assumed): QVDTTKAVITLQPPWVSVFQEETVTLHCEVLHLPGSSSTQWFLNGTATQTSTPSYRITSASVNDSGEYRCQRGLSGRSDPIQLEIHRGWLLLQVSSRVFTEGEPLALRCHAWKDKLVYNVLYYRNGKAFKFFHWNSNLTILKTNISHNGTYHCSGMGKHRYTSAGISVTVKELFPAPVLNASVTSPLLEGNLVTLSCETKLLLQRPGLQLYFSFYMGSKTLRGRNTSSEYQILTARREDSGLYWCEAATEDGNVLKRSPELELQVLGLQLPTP

B1: W3438-T3U4.E17-1.uIgG4.SP, bispecific anti-CD3 x CD19 (bispecific antibody)
heavy 1: QVQLVQSGAEVKKPGSSVKVSCKASGFAFTDYYIHWVRQAPGQGLEWMGWISPGNVNTKYNENFKGRVTITADKSTSTAYMELSSLRSEDTAVYYCARDGYSLYYFDYWGQGTLVTVLEDLKNVFPPEVAVFEPSEAEISHTQKATLVCLATGFYPDHVELSWWVNGKEVHSGVCTDPQPLKEQPALQDSRYALSSRLRVSATFWQNPRNHFRCQVQFYGLSENDEWTQDRAKPVTQIVSAEAWGRYGPPCPPCPAPEFLGGPSVFLFPPKPKDTLMISRTPEVTCVVVDVSQEDPEVQFNWYVDGVEVHNAKTKPREEQFNSTYRVVSVLTVLHQDWLNGKEYKCKVSNKGLPSSIEKTISKAKGQPREPQVYTLPPCQEEMTKNQVSLWCLVKGFYPSDIAVEWESNGQPENNYKTTPPVLDSDGSFFLYSRLTVDKSRWQEGNVFSCSVMHEALHNHYTQKSLSLSLGK
light 1: DIVMTQSPDSLAVSLGERATINCKSSQSLLNSRTRKNYLAWYQQKPGQPPKLLIYWASTRQSGVPDRFSGSGSGTDFTLTISSLQAEDVAVYYCTQSHTLRTFGGGTKVEIKPDIQNPDPAVYQLRDSKSSDKSVCLFTDFDSQTQVSQSKDSDVYITDKCVLDMRSMDFKSNSAVAWSQKSDFACANAFQNSIIPEDTFFPSPESS
heavy 2: QMQLVQSGPEVKKPGTSVKVSCKASGYAFTSYNMYWVRQARGQRLEWIGYIDPYNGDTTYNQKFKGRVTITRDMSTSTAYMELSSLRSEDTAVYYCLTTAYAMDYWGQGTLVTVSSASTKGPSVFPLAPCSRSTSESTAALGCLVKDYFPEPVTVSWNSGALTSGVHTFPAVLQSSGLYSLSSVVTVPSSSLGTKTYTCNVDHKPSNTKVDKRVESKYGPPCPPCPAPEFLGGPSVFLFPPKPKDTLMISRTPEVTCVVVDVSQEDPEVQFNWYVDGVEVHNAKTKPREEQFNSTYRVVSVLTVLHQDWLNGKEYKCKVSNKGLPSSIEKTISKAKGQPREPQVCTLPPSQEEMTKNQVSLSCAVKGFYPSDIAVEWESNGQPENNYKTTPPVLDSDGSFFLVSRLTVDKSRWQEGNVFSCSVMHEALHNHYTQKSLSLSLGK
light 2: DIQLTQSPSFLSASVGDRVTITCSASSTVNYMHWYQQKPGKAPKLLIYSTSNLASGVPSRFSGSGSGTEFTLTISSLQPEDFATYYCHQWSSYPYTFGQGTKLEIKRTVAAPSVFIFPPSDEQLKSGTASVVCLLNNFYPREAKVQWKVDNALQSGNSQESVTEQDSKDSTYSLSSTLTLSKADYEKHKVYACEVTHQGLSSPVTKSFNRGEC
notes: also called E17-Design_2-QQQQ (IgG4); E17-IgG4; copies: 1 + 1 + 1 + 1
Kd [1]: 29.3 µM | Kd [2]: 20.5 µM | Kd [3]: 15.8 µM | Kd [4]: 24.1 µM | Kd [5]: 14 µM | Kd [6]: 0.00979 µM | Kd [7]: 0.023 µM

B2: W3248-U6T5.G25-1.uIgG4.SP, bispecific anti-PD-1 x CTLA-4 (bispecific antibody)
heavy: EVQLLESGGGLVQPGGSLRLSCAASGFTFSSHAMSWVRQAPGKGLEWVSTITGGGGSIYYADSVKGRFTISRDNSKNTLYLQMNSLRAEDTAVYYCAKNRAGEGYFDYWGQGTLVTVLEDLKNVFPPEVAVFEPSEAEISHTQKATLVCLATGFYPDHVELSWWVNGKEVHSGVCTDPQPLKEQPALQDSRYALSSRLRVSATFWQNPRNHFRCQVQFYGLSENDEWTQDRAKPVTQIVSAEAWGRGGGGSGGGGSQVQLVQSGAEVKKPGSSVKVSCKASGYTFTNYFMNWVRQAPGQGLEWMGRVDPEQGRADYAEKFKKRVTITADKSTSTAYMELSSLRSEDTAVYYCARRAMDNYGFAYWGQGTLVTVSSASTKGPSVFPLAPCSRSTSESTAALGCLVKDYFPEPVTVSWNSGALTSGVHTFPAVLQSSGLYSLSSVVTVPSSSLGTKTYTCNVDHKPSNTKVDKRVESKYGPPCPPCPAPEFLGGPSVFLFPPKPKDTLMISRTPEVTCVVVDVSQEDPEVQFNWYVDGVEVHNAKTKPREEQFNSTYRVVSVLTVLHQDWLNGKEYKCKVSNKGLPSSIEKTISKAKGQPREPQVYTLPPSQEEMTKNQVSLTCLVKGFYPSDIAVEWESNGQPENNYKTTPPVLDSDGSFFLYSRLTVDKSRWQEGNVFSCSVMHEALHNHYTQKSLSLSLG
light 1: SYELTQPLSVSVALGQTARITCGGDNIGNKDVHWYQQKPGQAPVLVIYRDSNRPSGIPEGFSGSNSGNTATLTISRAQAGDEADYYCQVWDSIWVFGGGTKLTVLPDIQNPDPAVYQLRDSKSSDKSVCLFTDFDSQTQVSQSKDSDVYITDKCVLDMRSMDFKSNSAVAWSQKSDFACANAFQNSIIPEDTFFPSPESS
light 2: EIVLTQSPDFQSVTPKEKVTITCSANSALSYMYWYQQKPDQSPKLWVHGTSNLASGVPSRFSGSGSGTDFTLTINSLEAEDAATYYCHHWSNTQWTFGGGTKVEIKRTVAAPSVFIFPPSDEQLKSGTASVVCLLNNFYPREAKVQWKVDNALQSGNSQESVTEQDSKDSTYSLSSTLTLSKADYEKHKVYACEVTHQGLSSPVTKSFNRGEC
notes: IgG4 (S228P); also called WBP3248-U6T5.G25-1-uIgG4.SP; U6T5.G25.IgG4
Kd [8]: 0.0356 nM | koff [8]: 2.88e-05 s⁻¹ | kon [8]: 808000 M⁻¹ s⁻¹
